The target in the first assay is human glycoprotein hormone alpha subunit (human) (UniProt P01215). Kind of assay: co-expression with alpha subunit in CHO cells, pulse-chase, immunoprecipitation; monoglycosylated form recovered in the medium.
On to LHthr^15 (1-114), for which the Dimer Recovery (%) was determined as 40%.

The next assay shares this target. Description: co-expression with alpha subunit in CHO cells, 35S-cysteine pulse-chase, immunoprecipitation, SDS-PAGE.
Regarding CG(1-114), the Dimer Recovery (%) amounted to 90%. For the substance LH(1-114), the Dimer Recovery (%) stood at 80%. LHarg^8 registered a Dimer Recovery (%) of 32%. Turning to LHarg^8 (1-114), the Dimer Recovery (%) is 91%. The substance LHarg^8 arg^10 (1-114) yielded a Dimer Recovery (%) of 95%. Turning to LHasn^58 (1-114), the Dimer Recovery (%) was above 95%. On to LHthr^15, for which the Dimer Recovery (%) was 30%. LHthr^42 (1-114) showed a Dimer Recovery (%) of 84%. On to “human chorionic gonadotropin beta subunit”, for which the Dimer Recovery (%) was above 95%.

Substance human luteinizing hormone beta subunit displayed a Dimer Recovery (%) of 42%.

For the next assay the target is unchanged. Description: co-expression with alpha subunit in CHO cells, pulse-chase, immunoprecipitation; recovery of diglycosylated form, estimated.
Turning to LHthr^15 (1-114), the Dimer Recovery (%) was above 95%.

These data come from patent publication US5585345.
